Data on five molecules can be found in patent US20250216381A1 (published 2025).

Common to all, as to assay: activation reporter or marker
Test [1] has as its target T1, ARHGEF16 R150W peptide on HLA-DRA*01:01 / HLA-DRB1*11:01 (human).
T1 peptide: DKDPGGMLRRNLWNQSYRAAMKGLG

The target of test [2] is T2, ERGIC2 L176P peptide on HLA-A*03:01 (human).
T2 peptide: RIHGHPYVNK

The target in test [3] is T3, HELZ2 P775A peptide on HLA-DPA1*01:03 / HLA-DPB1*104:01 (human).
T3 peptide: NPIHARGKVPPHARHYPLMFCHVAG

In test [4] the target is T4, HELZ2 P775A peptide on HLA-DPA1*03:01 / HLA-DPB1*104:01 (human).
T4 peptide: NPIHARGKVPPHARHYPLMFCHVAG

B1: 8434-TCR21 (TCR, V domains shown)
Valpha: KQEVTQIPAALSVPEGENLVLNCSFTDSAIYNLQWFRQDPGKGLTSLLLIQSSQREQTSGRLNASLDKSSGRSTLYIAASQPGDSATYLCAVRRDGTASKLTFGTGTRLQVTL
Vbeta: AVVSQHPSWVICKSGTSVKIECRSLDFQATTMFWYRQFPKQSLMLMATSNEGSKATYEQGVEKDKFLINHASLTLSTLTVTSAHPEDSSFYICSASFPGRGNEQFFGPGTRLTVL
For B1, in test [1], the binding result is reported as “recognises”.

B2: 2599-TCR12 (TCR, V domains shown)
Valpha: EDKVVQSPLSLVVHEGDTVTLNCSYEVTNFRSLLWYKQEKKAPTFLFMLTSSGIEKKSGRLSSILDKKELFSILNITATQTGDSAIYLCGGLNAGGTSYGKLTFGQGTILTVHP
Vbeta: EPEVTQTPSHQVTQMGQEVILRCVPISNHLYFYWYRQILGQKVEFLVSFYNNEISEKSEIFDDQFSVERPDGSNFTLKIRSTKLEDSAMYFCASLGASTYEQYFGPGTRLTVT
In the case of B2, the binding result in test [2] is “recognises”.

B3: 8434-TCR23 (TCR, V domains shown)
Valpha: QQQVKQSPQSLIVQKGGISIINCAYENTAFDYFPWYQQFPGKGPALLIAIRPDVSEKKEGRFTISFNKSAKQFSLHIMDSQPGDSATYFCAASRASGGSYIPTFGRGTSLIVHP
Vbeta: GITQSPKYLFRKEGQNVTLSCEQNLNHDAMYWYRQDPGQGLRLIYYSQIVNDFQKGDIAEGYSVSREKKESFPLTVTSAQKNPTAFYLCATKILAGANTGELFFGEGSRLTVL
As for B3, the binding result in test [1] is recorded as “recognises”.

B4: 8434-TCR20 (TCR, V domains shown)
Valpha: KQEVTQIPAALSVPEGENLVLNCSFTDSAIYNLQWFRQDPGKGLTSLLLIQSSQREQTSGRLNASLDKSSGRSTLYIAASQPGDSATYLCAVRHSGNTPLVFGKGTRLSVIA
Vbeta: AVVSQHPSRVICKSGTSVKIECRSLDFQATTMFWYRQFPKQSLMLMATSNEGSKATYEQGVEKDKFLINHASLTLSTLTVTSAHPEDSSFYICSASGGGRTEAFFGQGTRLTVV
Turning to B4, the binding result in test [1] is recorded as “recognises”.

B5: 6932-TCR5 (TCR, V domains shown)
Valpha: RKEVEQDPGPFNVPEGATVAFNCTYSNSASQSFFWYRQDCRKEPKLLMSVYSSGNEDGRFTAQLNRASQYISLLIRDSKLSDSATYLCVVKNQGGKLIFGQGTELSVKP
Vbeta: GVTQTPRYLIKTRGQQVTLSCSPISGHRSVSWYQQTPGQGLQFLFEYFSETQRNKGNFPGRFSGRQFSNSRSEMNVSTLELGDSALYLCASILGGGRGDTQYFGPGTRLTVL
In the case of B5, the binding result in test [3] and in test [4] was “recognises” each time.
